Data as given in paper doi:10.1101/2025.11.18.689162 (bioRxiv, 2025).

Target: cardiac troponin I (TPNI), mouse, endogenous (mouse (endogenous in heart), UniProt P48787 1-211)
Assay: cell-based or functional assay

Chain of cardiac troponin I (TPNI), mouse, endogenous (P48787 whole entry): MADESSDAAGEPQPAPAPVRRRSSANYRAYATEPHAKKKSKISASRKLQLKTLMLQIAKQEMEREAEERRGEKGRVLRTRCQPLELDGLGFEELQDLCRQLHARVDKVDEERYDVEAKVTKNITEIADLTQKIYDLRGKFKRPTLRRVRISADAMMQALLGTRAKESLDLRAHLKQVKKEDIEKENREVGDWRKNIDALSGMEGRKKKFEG

B1: PDE4D9, mouse, endogenous (enzyme, mouse (endogenous in heart), UniProt Q01063-2 1-678, looked up)
chain: MSIIMKPRSRSTSSLRTTEAVCFDVDNGTSAGRSPLDPMTSPGSGLILQANFVHSQRRESFLYRSDSDYDLSPKSMSRNSSIASDIHGDDLIVTPFAQVLASLRTVRNNFAALTNLQDRAPSKRSPMCNQPSINKATITEEAYQKLASETLEELDWCLDQLETLQTRHSVSEMASNKFKRMLNRELTHLSEMSRSGNQVSEYISNTFLDKQHEVEIPSPTQKEKEKKKRPMSQISGVKKLMHSSSLTNSCIPRFGVKTEQEDVLAKELEDVNKWGLHVFRIAELSGNRPLTVIMHTIFQERDLLKTFKIPVDTLITYLMTLEDHYHADVAYHNNIHAADVVQSTHVLLSTPALEAVFTDLEILAAIFASAIHDVDHPGVSNQFLINTNSELALMYNDSSVLENHHLAVGFKLLQEENCDIFQNLTKKQRQSLRKMVIDIVLATDMSKHMNLLADLKTMVETKKVTSSGVLLLDNYSDRIQVLQNMVHCADLSNPTKPLQLYRQWTDRIMEEFFRQGDRERERGMEISPMCDKHNASVEKSQVGFIDYIVHPLWETWADLVHPDAQDILDTLEDNREWYQSTIPQSPSPAPDDQEEGRQGQTEKFQFELTLEEDCESDTEKDSGSQVEEDTSCSDSKTLCTQDSESTEIPLDEQVEEEAVAEEESQPETCVPDDCCPDT
With B1 the “TPNI phosphorylation in TAC mice treated with scAAV9-P33 against scAAV9-SC” value was 2.8 fold.
